Measured values reported in publication PMC12797016.
“And” between values parts separate entries of the source, which are not always exact repeats. Identical values can stand only once.

What was measured:
[1] = target: LC8 (dynein light chain, DYNLL1/DYNLL2) (Homo sapiens) (UniProt P63167); assay: ITC; settings: cited from earlier work
[2] = target: LC8 (dynein light chain, DYNLL1/DYNLL2) (Homo sapiens) (UniProt P63167); assay: ITC; settings: cited from earlier work; remark: listed apart in the source
[3] = target: LC8 (dynein light chain, DYNLL1/DYNLL2) (Homo sapiens) (UniProt P63167); assay: ITC; settings: cited from earlier work; remark: listed apart in the source
[4] = target: LC8 (dynein light chain, DYNLL1/DYNLL2) (Homo sapiens) (UniProt P63167); assay: ITC; settings: cited from earlier work; remark: listed apart in the source
[5] = target: LC8 (dynein light chain, DYNLL1/DYNLL2) (Homo sapiens) (UniProt P63167); assay: ITC; settings: cited from earlier work; remark: listed apart in the source
[6] = target: LC8 (dynein light chain, DYNLL1/DYNLL2) (Homo sapiens) (UniProt P63167); assay: ITC; settings: cited from earlier work; remark: listed apart in the source
[7] = target: LC8 (dynein light chain, DYNLL1/DYNLL2) (Homo sapiens) (UniProt P63167); assay: ITC; settings: cited from earlier work; remark: listed apart in the source
[8] = target: LC8 (dynein light chain, DYNLL1/DYNLL2) (Homo sapiens) (UniProt P63167); assay: ITC; settings: cited from earlier work; remark: listed apart in the source
[9] = target: LC8 (dynein light chain, DYNLL1/DYNLL2) (Homo sapiens) (UniProt P63167); assay: ITC; settings: cited from earlier work; remark: listed apart in the source
[10] = target: rGKAP_(655–711), LC8-binding segment of Rattus norvegicus guanylate kinase-associated protein (GKAP), His tag removed (Rattus norvegicus) (UniProt P97836); assay: dynamic light scattering; particle size of GKAP, LC8 dimer and their complex at 20 °C; W130i DLS device
[11] = target: 6xHis-tagged rGKAP_(655–711) (Rattus norvegicus) (UniProt P97836); assay: BLI; 6xHis-tagged rGKAP655-711 immobilised on Ni-NTA biosensors (5 ug/mL, 90 s); LC8 dimers 3.125-50 uM, association and dissociation 90 s each; kinetic buffer 50 mM sodium phosphate, 20 mM NaCl, pH 6.0, 20 mM imidazole, 0.1% BSA, 0.02% Tween 20, 0.02% NaN3; sensors hydrated at 25 °C; global fit; BLItz
[12] = target: LC8 (dynein light chain, DYNLL1/DYNLL2) (Homo sapiens) (UniProt P63167); assay: ITC; settings: cited from earlier work; remark: listed apart in the source
[13] = target: LC8 (dynein light chain, DYNLL1/DYNLL2) (Homo sapiens) (UniProt P63167); assay: ITC; settings: cited from earlier work; remark: listed apart in the source
[14] = target: LC8 (dynein light chain, DYNLL1/DYNLL2) (Homo sapiens) (UniProt P63167); assay: ITC; settings: cited from earlier work; remark: listed apart in the source
[15] = target: LC8 (dynein light chain, DYNLL1/DYNLL2) (Homo sapiens) (UniProt P63167); assay: ITC; settings: cited from earlier work; remark: listed apart in the source
[16] = target: LC8 (dynein light chain, DYNLL1/DYNLL2) (Homo sapiens) (UniProt P63167); assay: ITC; settings: cited from earlier work; remark: listed apart in the source
[17] = target: LC8 (dynein light chain, DYNLL1/DYNLL2) (Homo sapiens) (UniProt P63167); assay: ITC; settings: cited from earlier work; remark: listed apart in the source
[18] = target: LC8 (dynein light chain, DYNLL1/DYNLL2) (Homo sapiens) (UniProt P63167); assay: ITC; settings: cited from earlier work; remark: listed apart in the source
[19] = target: LC8 (dynein light chain, DYNLL1/DYNLL2) (Homo sapiens) (UniProt P63167); assay: ITC; settings: cited from earlier work; remark: listed apart in the source
[20] = target: LC8 (dynein light chain, DYNLL1/DYNLL2) (Homo sapiens) (UniProt P63167); assay: ITC; settings: cited from earlier work; remark: listed apart in the source
[21] = target: LC8 (dynein light chain, DYNLL1/DYNLL2) (Homo sapiens) (UniProt P63167); assay: ITC; settings: cited from earlier work; remark: listed apart in the source
[22] = target: LC8 (dynein light chain, DYNLL1/DYNLL2) (Homo sapiens) (UniProt P63167); assay: ITC; settings: cited from earlier work; remark: listed apart in the source

UniProt P63167, sequence (P63167 whole entry): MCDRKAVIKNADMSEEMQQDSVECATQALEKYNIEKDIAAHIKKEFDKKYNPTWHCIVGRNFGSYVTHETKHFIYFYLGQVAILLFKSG

Substance | Kd [1] | other results
LCA5 | 2.6 µM and 8.1 µM | –
OFD1 | 12.5 µM and 12.8 µM | –
ASCIZ | 20 µM | Kd [2]: 7 µM; Kd [3]: 14 µM; Kd [4]: 15 µM; Kd [5]: 36 µM; Kd [6]: 11 µM; Kd [7]: 9.3 µM; Kd [8]: 15 µM; Kd [9]: 10 µM
dynein light chain LC8 (DYNLL2, DLC2), Rattus norvegicus, dimer (natural protein) | – | stoichiometry N (LC8 dimers per GKAP segment (2 : 2)) [10]: 1; Kd [11]: 0.29 µM; koff [11]: 0.0025 s⁻¹; kon [11]: 8800 M⁻¹ s⁻¹
53BP1 | 1 µM | Kd [12]: 5.2 µM; Kd [13]: 0.62 µM
NUP159 | 1 µM | –
AMOTL2 | 1.98 µM | –
CFAP91 | 0.55 µM | –
NEK9 | 0.16 µM | –
L-MAG | 7.3 µM | –
MAP4 | 4.42 µM | –
IC | 3 µM | –
Kib1 | 0.45 µM | –
WWC2 | 32.7 µM | Kd [14]: 17.6 µM
WWC3 | 5.34 µM | Kd [15]: 3.5 µM
bmf | 0.79 µM | –
EML3 | 0.05 µM | –
CEP152 | 2.37 µM | –
AKAP9 | 12.4 µM | –
myosin Va | 9 µM | –

Substance | Kd [1] | other results
Bim | 0.52 µM | –
Restv | 62.1 µM | –
Sudv | 6.45 µM | –
Swa | 0.62 µM | –
Kib2 | 4 µM | –
CDK5RAP2 | 12.5 µM | –
ana2 | 12.8 µM | Kd [16]: 1.14 µM
GKAP | 2.4 µM | –
IQUB | 3.57 µM | –
vp35 virus | 3.91 µM | Kd [17]: 3.91 µM
nNOS | 5.41 µM and 7 µM | –
AMOT | 1.2 µM | –
AMOTL1 | 1.55 µM | –
SAO-1 | 0.5 µM | Kd [18]: 0.5 µM
Pak1 | 42.7 µM | –
ALMS1 | 19.2 µM | –
WWC1 | 4 µM | Kd [19]: 0.45 µM
protein panoramix | 0.14 µM | Kd [20]: 0.075 µM
dyn intermediate chain (ICTL) | 0.5 µM | Kd [21]: 8 µM; Kd [22]: 8 µM
Myosin Va | 8.85 µM | –
